In paper PMC8674358, “Decoding non-canonical mRNA decay by the endoplasmic-reticulum stress sensor IRE1α” (Nature Communications, 2021):

B1: IRE1-KR-R887A, unphosphorylated (domain or fragment, human, UniProt O75460 547-977, looked up)
chain: GSSPSLEQDDGDEETSVVIVGKISFCPKDVLGHGAEGTIVYRGMFDNRDVAVKRILPECFSFADREVQLLRESDEHPNVIRYFCTEKDRQFQYIAIELCAATLQEYVEQKDFAHLGLEPITLLQQTTSGLAHLHSLNIVHRDLKPHNILISMPNAHGKIKAMISDFGLCKKLAVGRHSFSRRSGVPGTEGWIAPEMLSEDCKENPTYTVDIFSAGCVFYYVISEGSHPFGKSLQRQANILLGACSLDCLHPEKHEDVIARELIEKMIAMDPQKRPSAKHVLKHPFFWSLEKQLQFFQDVSDRIEKESLDGPIVKQLERGGRAVVKMDWRENITVPLQTDLAKFRTYKGGSVRDLLRAMRNKKHHYRELPAEVRETLGSLPDDFVCYFTSRFPHLLAHTYRAMELCSHERLFQPYYFHEPPEPQPPVTPDAL
notes: IRE1α, human, kinase-endoribonuclease (KR) module, residues G547-L977, with R887A; also called unphosphorylated R887A; source: SF9 cells, purified in-house following the same procedure as IRE1α KR; not shown: His6, N-terminal, cleaved
B2: IRE1-KR-R887A, phosphorylated (domain or fragment, human, UniProt O75460 547-977, looked up)
chain: B1 chain
modifications: phosphorylated (allowed to autophosphorylate in the presence of ATP and MgCl2); sites not stated for this mutant
notes: IRE1α, human, kinase-endoribonuclease (KR) module, residues G547-L977, with R887A; also called phosphorylated IRE1-KR-R887A; IRE1-KR-3P R887A; source: SF9 cells, purified in-house following the same procedure as IRE1α KR; autophosphorylated with 2 mM ATP and 10 mM MgCl2, then SEC; not shown: His6, N-terminal, cleaved

Biological target: the molecule itself
Test: cross-linking; 1 μg IRE1-KR (~0.8 μM) or various concentrations in RNA cleavage buffer (20 mM HEPES pH 7.5, 50 mM K acetate, 1 mM Mg acetate, 0.05% Triton X-100), 250 μM DSS, 1 h on ice; SDS-PAGE and IRE1α immunoblot; also with CRUK-3 (5 µM), which augmented KR-0P dimerization and oligomerization

| Protein | stoichiometry N |
| --- | --- |
| B1 | 2 |
| B2 | 2 |
